Columns and labels:
[1] = molecular target: Trypanosoma cruzi phosphofructokinase (T. cruzi (strain CL Brener)); test: SEC; preparative gel filtration of IMAC eluate on HiPrep Sephacryl S-200 16/60; 20 mM TEA, 5 mM MgCl2, 50 mM KCl, 10% glycerol, pH 7.4; tetrameric fractions collected
[2] = molecular target: the molecule itself; test: SEC; preparative size exclusion of IMAC eluate on HiPrep Sephacryl S300 16/600; 50 mM TEA, 500 mM KCl, 5 mM MgCl2, 1 mM TCEP, 1 mM ATP/F6P, 10% glycerol, pH 7.4; fractions corresponding to the tetramer (340 kDa) pooled
[3] = molecular target: the molecule itself; test: SEC; preparative size exclusion of IMAC eluate on Superose 6 10/300; 50 mM TEA, 500 mM KCl, 5 mM MgCl2, 1 mM TCEP, 1 mM ATP/F6P, 10% glycerol, pH 8; fractions corresponding to the tetramer (340 kDa) pooled
[4] = molecular target: the molecule itself; test: SEC; preparative gel filtration of IMAC eluate on HiPrep Sephacryl S-200 16/60; 20 mM TEA, 5 mM MgCl2, 50 mM KCl, 10% glycerol, pH 7.4; tetrameric fractions collected

With “Trypanosoma cruzi phosphofructokinase (enzyme)” the stoichiometry N [1] was 4.

B1: human phosphofructokinase isoform PFK-M (enzyme, UniProt P08237 1-780, looked up)
chain: MTHEEHHAAKTLGIGKAIAVLTSGGDAQGMNAAVRAVVRVGIFTGARVFFVHEGYQGLVDGGDHIKEATWESVSMMLQLGGTVIGSARCKDFREREGRLRAAYNLVKRGITNLCVIGGDGSLTGADTFRSEWSDLLSDLQKAGKITDEEATKSSYLNIVGLVGSIDNDFCGTDMTIGTDSALHRIMEIVDAITTTAQSHQRTFVLEVMGRHCGYLALVTSLSCGADWVFIPECPPDDDWEEHLCRRLSETRTRGSRLNIIIVAEGAIDKNGKPITSEDIKNLVVKRLGYDTRVTVLGHVQRGGTPSAFDRILGSRMGVEAVMALLEGTPDTPACVVSLSGNQAVRLPLMECVQVTKDVTKAMDEKKFDEALKLRGRSFMNNWEVYKLLAHVRPPVSKSGSHTVAVMNVGAPAAGMNAAVRSTVRIGLIQGNRVLVVHDGFEGLAKGQIEEAGWSYVGGWTGQGGSKLGTKRTLPKKSFEQISANITKFNIQGLVIIGGFEAYTGGLELMEGRKQFDELCIPFVVIPATVSNNVPGSDFSVGADTALNTICTTCDRIKQSAAGTKRRVFIIETMGGYCGYLATMAGLAAGADAAYIFEEPFTIRDLQANVEHLVQKMKTTVKRGLVLRNEKCNENYTTDFIFNLYSEEGKGIFDSRKNVLGHMQQGGSPTPFDRNFATKMGAKAMNWMSGKIKESYRNGRIFANTPDSGCVLGMRKRALVFQPVAELKDQTDFEHRIPKEQWWLKLRPILKILAKYEIDLDTSDHAHLEHITRKRSGEAAV
notes: human ATP-dependent phosphofructokinase, muscle type (PFK-M1), yeast codon optimised cDNA; also called PFK-M1; source: PFK-deficient Saccharomyces cerevisiae, plasmid pJJH71, purified (nickel IMAC, Sephacryl S300 size exclusion)
With B1 the “stoichiometry N” value [2] was 4.

B2: human phosphofructokinase isoform PFK-P (enzyme, UniProt Q01813 1-784, looked up)
chain: MDADDSRAPKGSLRKFLEHLSGAGKAIGVLTSGGDAQGMNAAVRAVVRMGIYVGAKVYFIYEGYQGMVDGGSNIAEADWESVSSILQVGGTIIGSARCQAFRTREGRLKAACNLLQRGITNLCVIGGDGSLTGANLFRKEWSGLLEELARNGQIDKEAVQKYAYLNVVGMVGSIDNDFCGTDMTIGTDSALHRIIEVVDAIMTTAQSHQRTFVLEVMGRHCGYLALVSALACGADWVFLPESPPEEGWEEQMCVKLSENRARKKRLNIIIVAEGAIDTQNKPITSEKIKELVVTQLGYDTRVTILGHVQRGGTPSAFDRILASRMGVEAVIALLEATPDTPACVVSLNGNHAVRLPLMECVQMTQDVQKAMDERRFQDAVRLRGRSFAGNLNTYKRLAIKLPDDQIPKTNCNVAVINVGAPAAGMNAAVRSAVRVGIADGHRMLAIYDGFDGFAKGQIKEIGWTDVGGWTGQGGSILGTKRVLPGKYLEEIATQMRTHSINALLIIGGFEAYLGLLELSAAREKHEEFCVPMVMVPATVSNNVPGSDFSIGADTALNTITDTCDRIKQSASGTKRRVFIIETMGGYCGYLANMGGLAAGADAAYIFEEPFDIRDLQSNVEHLTEKMKTTIQRGLVLRNESCSENYTTDFIYQLYSEEGKGVFDCRKNVLGHMQQGGAPSPFDRNFGTKISARAMEWITAKLKEARGRGKKFTTDDSICVLGISKRNVIFQPVAELKKQTDFEHRIPKEQWWLKLRPLMKILAKYKASYDVSDSGQLEHVQPWSV
notes: human ATP-dependent phosphofructokinase, platelet type (PFK-P1), yeast codon optimised cDNA; also called PFK-P1; source: PFK-deficient Saccharomyces cerevisiae, plasmid pJJH71, purified (nickel IMAC, Superose 6 size exclusion)
In the case of B2, the “stoichiometry N” value [3] is reported as 4.

B3: human phosphofructokinase isoform PFK-L (enzyme, UniProt P17858 1-780, looked up)
chain: MAAVDLEKLRASGAGKAIGVLTSGGDAQGMNAAVRAVTRMGIYVGAKVFLIYEGYEGLVEGGENIKQANWLSVSNIIQLGGTIIGSARCKAFTTREGRRAAAYNLVQHGITNLCVIGGDGSLTGANIFRSEWGSLLEELVAEGKISETTARTYSHLNIAGLVGSIDNDFCGTDMTIGTDSALHRIMEVIDAITTTAQSHQRTFVLEVMGRHCGYLALVSALASGADWLFIPEAPPEDGWENFMCERLGETRSRGSRLNIIIIAEGAIDRNGKPISSSYVKDLVVQRLGFDTRVTVLGHVQRGGTPSAFDRILSSKMGMEAVMALLEATPDTPACVVTLSGNQSVRLPLMECVQMTKEVQKAMDDKRFDEATQLRGGSFENNWNIYKLLAHQKPPKEKSNFSLAILNVGAPAAGMNAAVRSAVRTGISHGHTVYVVHDGFEGLAKGQVQEVGWHDVAGWLGRGGSMLGTKRTLPKGQLESIVENIRIYGIHALLVVGGFEAYEGVLQLVEARGRYEELCIVMCVIPATISNNVPGTDFSLGSDTAVNAAMESCDRIKQSASGTKRRVFIVETMGGYCGYLATVTGIAVGADAAYVFEDPFNIHDLKVNVEHMTEKMKTDIQRGLVLRNEKCHDYYTTEFLYNLYSSEGKGVFDCRTNVLGHLQQGGAPTPFDRNYGTKLGVKAMLWLSEKLREVYRKGRVFANAPDSACVIGLKKKAVAFSPVTELKKDTDFEHRMPREQWWLSLRLMLKMLAQYRISMAAYVSGELEHVTRRTLSMDKGF
notes: human ATP-dependent phosphofructokinase, liver type (PFK-L1), yeast codon optimised cDNA; also called PFK-L1; source: PFK-deficient Saccharomyces cerevisiae, plasmid pJJH71, purified (nickel IMAC, Superose 6 size exclusion)
For B3, the “stoichiometry N” value [3] was 4.

B4: Trypanosoma brucei phosphofructokinase (enzyme, T. b. brucei (strain Lister 427), UniProt O15648 1-487, looked up)
chain: MAVESRSRVTSKLVKAHRAMLNSVTQEDLKVDRLPGADYPNPSKKYSSRTEFRDKTDYIMYNPRPRDEPSSENPVSVSPLLCELAAARSRIHFNPTETTIGIVTCGGICPGLNDVIRSITLTGINVYNVKRVIGFRFGYWGLSKKGSQTAIELHRGRVTNIHHYGGTILGSSRGPQDPKEMVDTLERLGVNILFTVGGDGTQRGALVISQEAKRRGVDISVFGVPKTIDNDLSFSHRTFGFQTAVEKAVQAIRAAYAEAVSANYGVGVVKLMGRDSGFIAAQAAVASAQANICLVPENPISEQEVMSLLERRFCHSRSCVIIVAEGFGQDWGRGSGGYDASGNKKLIDIGVILTEKVKAFLKANKSRYPDSTVKYIDPSYMIRACPPSANDALFCATLATLAVHEAMAGATGCIIAMRHNNYILVPIKVATSVRRVLDLRGQLWRQVREITVDLGSDVRLARKLEIRRELEAINRNRDRLHEELAKL
notes: ATP-dependent phosphofructokinase of Trypanosoma brucei brucei, DNA source strain Lister 427, codon optimised for E. coli; Tag removal was only partially successful; the tagged protein was used for all experiments; also called TbPFK; T. brucei PFK; source: E. coli C41 (DE3), pET28a, purified (cobalt IMAC, Sephacryl S-200 gel filtration); not shown: His6, N-terminal, kept
In the case of B4, the “stoichiometry N” value [4] is reported as 4.
